Experimental data as given in US12679878B2, “CRF2 receptor agonists and their use in therapy” (SANOFI, priority 2020, dated 2026).
Starred links: 1 amine or outer side, 2 acyl side, 3 side chain; linkers in the order of their positions; H or OH if unused. Non-standard residues stand in square brackets, D forms with d. Groups on a side chain read outwards from the residue. No end group written: not given here. *: point of attachment. C18 diacid = O=C(O)CCCCCCCCCCCCCCCCC(=O)*; γGlu = O=C(O)[C@H](CCC(=O)[*:2])N[*:1]; AEEA = NCCOCCOCC(=O)O; Aib = CC(C)(N)C(=O)O

B1: SEQ ID NO: 155 (peptide)
peptide: IVLSLDVPIGLK([AEEA-AEEA-γGlu-C18 diacid])QILLEQEKQEKEKQQAEKNKRILERV-NH2
modifications: N-terminus assumed
SMILES: CC[C@H](C)[C@H](N)C(=O)N[C@H](C(=O)N[C@@H](CC(C)C)C(=O)N[C@@H](CO)C(=O)N[C@@H](CC(C)C)C(=O)N[C@@H](CC(=O)O)C(=O)N[C@H](C(=O)N1CCC[C@H]1C(=O)N[C@H](C(=O)NCC(=O)N[C@@H](CC(C)C)C(=O)N[C@@H](CCCCNC(=O)COCCOCCNC(=O)COCCOCCNC(=O)CC[C@H](NC(=O)CCCCCCCCCCCCCCCCC(=O)O)C(=O)O)C(=O)N[C@@H](CCC(N)=O)C(=O)N[C@H](C(=O)N[C@@H](CC(C)C)C(=O)N[C@@H](CC(C)C)C(=O)N[C@@H](CCC(=O)O)C(=O)N[C@@H](CCC(N)=O)C(=O)N[C@@H](CCC(=O)O)C(=O)N[C@@H](CCCCN)C(=O)N[C@@H](CCC(N)=O)C(=O)N[C@@H](CCC(=O)O)C(=O)N[C@@H](CCCCN)C(=O)N[C@@H](CCC(=O)O)C(=O)N[C@@H](CCCCN)C(=O)N[C@@H](CCC(N)=O)C(=O)N[C@@H](CCC(N)=O)C(=O)N[C@@H](C)C(=O)N[C@@H](CCC(=O)O)C(=O)N[C@@H](CCCCN)C(=O)N[C@@H](CC(N)=O)C(=O)N[C@@H](CCCCN)C(=O)N[C@@H](CCCNC(=N)N)C(=O)N[C@H](C(=O)N[C@@H](CC(C)C)C(=O)N[C@@H](CCC(=O)O)C(=O)N[C@@H](CCCNC(=N)N)C(=O)N[C@H](C(N)=O)C(C)C)[C@@H](C)CC)[C@@H](C)CC)[C@@H](C)CC)C(C)C)C(C)C
B2: SEQ ID NO: 156 (peptide)
peptide: IVLSLDVPIGLK([AEEA-AEEA-γGlu-C18 diacid])QILLKQERQKK[Aib]REQAETNAQILAQV-NH2
modifications: N-terminus assumed
SMILES: CC[C@H](C)[C@H](N)C(=O)N[C@H](C(=O)N[C@@H](CC(C)C)C(=O)N[C@@H](CO)C(=O)N[C@@H](CC(C)C)C(=O)N[C@@H](CC(=O)O)C(=O)N[C@H](C(=O)N1CCC[C@H]1C(=O)N[C@H](C(=O)NCC(=O)N[C@@H](CC(C)C)C(=O)N[C@@H](CCCCNC(=O)COCCOCCNC(=O)COCCOCCNC(=O)CC[C@H](NC(=O)CCCCCCCCCCCCCCCCC(=O)O)C(=O)O)C(=O)N[C@@H](CCC(N)=O)C(=O)N[C@H](C(=O)N[C@@H](CC(C)C)C(=O)N[C@@H](CC(C)C)C(=O)N[C@@H](CCCCN)C(=O)N[C@@H](CCC(N)=O)C(=O)N[C@@H](CCC(=O)O)C(=O)N[C@@H](CCCNC(=N)N)C(=O)N[C@@H](CCC(N)=O)C(=O)N[C@@H](CCCCN)C(=O)N[C@@H](CCCCN)C(=O)NC(C)(C)C(=O)N[C@@H](CCCNC(=N)N)C(=O)N[C@@H](CCC(=O)O)C(=O)N[C@@H](CCC(N)=O)C(=O)N[C@@H](C)C(=O)N[C@@H](CCC(=O)O)C(=O)N[C@H](C(=O)N[C@@H](CC(N)=O)C(=O)N[C@@H](C)C(=O)N[C@@H](CCC(N)=O)C(=O)N[C@H](C(=O)N[C@@H](CC(C)C)C(=O)N[C@@H](C)C(=O)N[C@@H](CCC(N)=O)C(=O)N[C@H](C(N)=O)C(C)C)[C@@H](C)CC)[C@@H](C)O)[C@@H](C)CC)[C@@H](C)CC)C(C)C)C(C)C
B3: SEQ ID NO: 157 (peptide)
peptide: Ac-IVLSLD[dV]PIKLK([AEEA-AEEA-γGlu-C18 diacid])QILLEQARQK[Aib]QREQAEKNKQILEQV-NH2
SMILES: CC[C@H](C)[C@H](NC(C)=O)C(=O)N[C@H](C(=O)N[C@@H](CC(C)C)C(=O)N[C@@H](CO)C(=O)N[C@@H](CC(C)C)C(=O)N[C@@H](CC(=O)O)C(=O)N[C@@H](C(=O)N1CCC[C@H]1C(=O)N[C@H](C(=O)N[C@@H](CCCCN)C(=O)N[C@@H](CC(C)C)C(=O)N[C@@H](CCCCNC(=O)COCCOCCNC(=O)COCCOCCNC(=O)CC[C@H](NC(=O)CCCCCCCCCCCCCCCCC(=O)O)C(=O)O)C(=O)N[C@@H](CCC(N)=O)C(=O)N[C@H](C(=O)N[C@@H](CC(C)C)C(=O)N[C@@H](CC(C)C)C(=O)N[C@@H](CCC(=O)O)C(=O)N[C@@H](CCC(N)=O)C(=O)N[C@@H](C)C(=O)N[C@@H](CCCNC(=N)N)C(=O)N[C@@H](CCC(N)=O)C(=O)N[C@@H](CCCCN)C(=O)NC(C)(C)C(=O)N[C@@H](CCC(N)=O)C(=O)N[C@@H](CCCNC(=N)N)C(=O)N[C@@H](CCC(=O)O)C(=O)N[C@@H](CCC(N)=O)C(=O)N[C@@H](C)C(=O)N[C@@H](CCC(=O)O)C(=O)N[C@@H](CCCCN)C(=O)N[C@@H](CC(N)=O)C(=O)N[C@@H](CCCCN)C(=O)N[C@@H](CCC(N)=O)C(=O)N[C@H](C(=O)N[C@@H](CC(C)C)C(=O)N[C@@H](CCC(=O)O)C(=O)N[C@@H](CCC(N)=O)C(=O)N[C@H](C(N)=O)C(C)C)[C@@H](C)CC)[C@@H](C)CC)[C@@H](C)CC)C(C)C)C(C)C
B4: SEQ ID NO: 158 (peptide)
peptide: Ac-IVLSLD[dV]PIKLK([AEEA-AEEA-γGlu-C18 diacid])QILLEQERQK[Aib]QREQAEKNKQILEQV-NH2
SMILES: CC[C@H](C)[C@H](NC(C)=O)C(=O)N[C@H](C(=O)N[C@@H](CC(C)C)C(=O)N[C@@H](CO)C(=O)N[C@@H](CC(C)C)C(=O)N[C@@H](CC(=O)O)C(=O)N[C@@H](C(=O)N1CCC[C@H]1C(=O)N[C@H](C(=O)N[C@@H](CCCCN)C(=O)N[C@@H](CC(C)C)C(=O)N[C@@H](CCCCNC(=O)COCCOCCNC(=O)COCCOCCNC(=O)CC[C@H](NC(=O)CCCCCCCCCCCCCCCCC(=O)O)C(=O)O)C(=O)N[C@@H](CCC(N)=O)C(=O)N[C@H](C(=O)N[C@@H](CC(C)C)C(=O)N[C@@H](CC(C)C)C(=O)N[C@@H](CCC(=O)O)C(=O)N[C@@H](CCC(N)=O)C(=O)N[C@@H](CCC(=O)O)C(=O)N[C@@H](CCCNC(=N)N)C(=O)N[C@@H](CCC(N)=O)C(=O)N[C@@H](CCCCN)C(=O)NC(C)(C)C(=O)N[C@@H](CCC(N)=O)C(=O)N[C@@H](CCCNC(=N)N)C(=O)N[C@@H](CCC(=O)O)C(=O)N[C@@H](CCC(N)=O)C(=O)N[C@@H](C)C(=O)N[C@@H](CCC(=O)O)C(=O)N[C@@H](CCCCN)C(=O)N[C@@H](CC(N)=O)C(=O)N[C@@H](CCCCN)C(=O)N[C@@H](CCC(N)=O)C(=O)N[C@H](C(=O)N[C@@H](CC(C)C)C(=O)N[C@@H](CCC(=O)O)C(=O)N[C@@H](CCC(N)=O)C(=O)N[C@H](C(N)=O)C(C)C)[C@@H](C)CC)[C@@H](C)CC)[C@@H](C)CC)C(C)C)C(C)C
B5: SEQ ID NO: 159 (peptide)
peptide: Ac-IVLSLD[dV]PIKLK([AEEA-AEEA-γGlu-C18 diacid])QILLEQERQE[Aib]QREQAEKNKQILEQV-NH2
SMILES: CC[C@H](C)[C@H](NC(C)=O)C(=O)N[C@H](C(=O)N[C@@H](CC(C)C)C(=O)N[C@@H](CO)C(=O)N[C@@H](CC(C)C)C(=O)N[C@@H](CC(=O)O)C(=O)N[C@@H](C(=O)N1CCC[C@H]1C(=O)N[C@H](C(=O)N[C@@H](CCCCN)C(=O)N[C@@H](CC(C)C)C(=O)N[C@@H](CCCCNC(=O)COCCOCCNC(=O)COCCOCCNC(=O)CC[C@H](NC(=O)CCCCCCCCCCCCCCCCC(=O)O)C(=O)O)C(=O)N[C@@H](CCC(N)=O)C(=O)N[C@H](C(=O)N[C@@H](CC(C)C)C(=O)N[C@@H](CC(C)C)C(=O)N[C@@H](CCC(=O)O)C(=O)N[C@@H](CCC(N)=O)C(=O)N[C@@H](CCC(=O)O)C(=O)N[C@@H](CCCNC(=N)N)C(=O)N[C@@H](CCC(N)=O)C(=O)N[C@@H](CCC(=O)O)C(=O)NC(C)(C)C(=O)N[C@@H](CCC(N)=O)C(=O)N[C@@H](CCCNC(=N)N)C(=O)N[C@@H](CCC(=O)O)C(=O)N[C@@H](CCC(N)=O)C(=O)N[C@@H](C)C(=O)N[C@@H](CCC(=O)O)C(=O)N[C@@H](CCCCN)C(=O)N[C@@H](CC(N)=O)C(=O)N[C@@H](CCCCN)C(=O)N[C@@H](CCC(N)=O)C(=O)N[C@H](C(=O)N[C@@H](CC(C)C)C(=O)N[C@@H](CCC(=O)O)C(=O)N[C@@H](CCC(N)=O)C(=O)N[C@H](C(N)=O)C(C)C)[C@@H](C)CC)[C@@H](C)CC)[C@@H](C)CC)C(C)C)C(C)C
B6: SEQ ID NO: 160 (peptide)
peptide: Ac-IVLSLD[dV]PIKLK([AEEA-AEEA-γGlu-C18 diacid])QILLEQERQE[Aib]EREQAETNKQILEQV-NH2
SMILES: CC[C@H](C)[C@H](NC(C)=O)C(=O)N[C@H](C(=O)N[C@@H](CC(C)C)C(=O)N[C@@H](CO)C(=O)N[C@@H](CC(C)C)C(=O)N[C@@H](CC(=O)O)C(=O)N[C@@H](C(=O)N1CCC[C@H]1C(=O)N[C@H](C(=O)N[C@@H](CCCCN)C(=O)N[C@@H](CC(C)C)C(=O)N[C@@H](CCCCNC(=O)COCCOCCNC(=O)COCCOCCNC(=O)CC[C@H](NC(=O)CCCCCCCCCCCCCCCCC(=O)O)C(=O)O)C(=O)N[C@@H](CCC(N)=O)C(=O)N[C@H](C(=O)N[C@@H](CC(C)C)C(=O)N[C@@H](CC(C)C)C(=O)N[C@@H](CCC(=O)O)C(=O)N[C@@H](CCC(N)=O)C(=O)N[C@@H](CCC(=O)O)C(=O)N[C@@H](CCCNC(=N)N)C(=O)N[C@@H](CCC(N)=O)C(=O)N[C@@H](CCC(=O)O)C(=O)NC(C)(C)C(=O)N[C@@H](CCC(=O)O)C(=O)N[C@@H](CCCNC(=N)N)C(=O)N[C@@H](CCC(=O)O)C(=O)N[C@@H](CCC(N)=O)C(=O)N[C@@H](C)C(=O)N[C@@H](CCC(=O)O)C(=O)N[C@H](C(=O)N[C@@H](CC(N)=O)C(=O)N[C@@H](CCCCN)C(=O)N[C@@H](CCC(N)=O)C(=O)N[C@H](C(=O)N[C@@H](CC(C)C)C(=O)N[C@@H](CCC(=O)O)C(=O)N[C@@H](CCC(N)=O)C(=O)N[C@H](C(N)=O)C(C)C)[C@@H](C)CC)[C@@H](C)O)[C@@H](C)CC)[C@@H](C)CC)C(C)C)C(C)C

What follows are binders tested against human corticotropin-releasing factor 2α (CRF2 α receptor) (human), Q13324 (assay: cell-based or functional assay).
human corticotropin-releasing factor 2α (CRF2 α receptor) (human), Q13324, sequence (Q13324 20-411): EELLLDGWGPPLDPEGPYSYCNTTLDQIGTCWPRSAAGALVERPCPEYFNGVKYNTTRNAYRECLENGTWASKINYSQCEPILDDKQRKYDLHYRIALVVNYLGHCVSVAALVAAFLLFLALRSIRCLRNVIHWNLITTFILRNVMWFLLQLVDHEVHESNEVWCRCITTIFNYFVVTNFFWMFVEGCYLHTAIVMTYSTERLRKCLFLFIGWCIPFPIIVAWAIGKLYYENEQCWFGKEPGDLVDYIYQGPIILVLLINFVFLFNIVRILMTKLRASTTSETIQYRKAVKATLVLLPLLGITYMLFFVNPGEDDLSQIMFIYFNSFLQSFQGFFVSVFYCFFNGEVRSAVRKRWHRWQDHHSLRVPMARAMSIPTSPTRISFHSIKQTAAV

In order of falling EC50 [nM], 0% HSA:
1. B1  8.87 nM
2. B6  8.56 nM
3. B5  1.27 nM
4. B2  1.06 nM
5. B4  0.42 nM
6. B3  0.12 nM

In order of rising EC50 [nM], 0.1% HSA:
1. B3  2.53 nM
2. B4  5.63 nM
3. B5  27.4 nM
4. B6  28.9 nM
